Source: US10179909B2, “Non-natural amino acid tRNA synthetases for pyridyl tetrazine” (priority 2013, dated 2019)

System: GFP (K49TAG) amber (TAG) codon / orthogonal CUA-encoding suppressor tRNA
Test: CFPS based GFP K49TAG amber suppression assay
Type: biochemical, E. coli
Conditions: for full-length GFP expression by suppression of the TAG codon: clone titrated into CFPS reactions in the absence or presence of 4 μM non-natural amino acid; for amber suppression efficiency (levels of GFP detected): in the presence of the pyridyl-amino tetrazine compound (Formula I for 2A2, Formula II for 2A9), cell-free protein synthesis, 30° C., 12 h; for amber suppression (levels of GFP detected) without non-natural amino acid: reactions lacking the non-natural amino acid and containing the common naturally occurring amino acids
Experimental: The RS variants described herein were used to incorporate the compound of Formula I or the compound Formula II into the reporter protein Superfolder GFP. GFP containing a TAG stop codon at position 49 (GFP (K49TAG)) was expressed in a cell-free protein synthesis reaction as described in Zawada et al., 2011, Biotechnol. Bioeng., 108(7)1570-1578 with the following modifications. The cell free extracts were prepared from an OmpT sensitive RF-1 attenuated strain that was also engineered to overexpress E. coli DsbC, and a similar RF-1 attenuated E. coli strain that was engineered to produce an orthogonal CUA-encoding tRNA for insertion of a non-natural amino acid at an amber stop codon. The cell free extracts were blended (at a ratio of 85:15), and then added to a premix containing all other components of a cell-free protein synthesis system except for DNA encoding GFP (K49TAG). The final concentration in the cell-free protein synthesis reaction was 30% cell extract, with or without 2 mM non-natural amino acid (either Formula I or Formula II), 4 μM, 2 μM, 1 μM or no nnAA-specific RS variant (e.g., variant clone 1A7, 2A2, 1B7, 1B8, 2A1, 2B7, 2B5, 2A5, 2B4, 2B3, or 2A9), 8 mM magnesium glutamate, 10 mM ammonium glutamate, 130 mM potassium glutamate, 35 mM sodium pyruvate, 1.2 mM AMP, 0.86 mM each of GMP, UMP, and CMP, 2 mM amino acids (except 0.5 mM for tyrosine and phenylalanine), 4 mM sodium oxalate, 1 mM putrescine, 1.5 mM spermidine, 15 mM potassium phosphate, 100 nM T7 RNAP, 10 μg/mL GFP (K49TAG) expression template plasmid. The cell-free synthesis reactions were initiated by the addition of the plasmid DNA encoding GFP (K49TAG). The reactions were incubated at 30° C. for 12 h on a shaker at 650 rpm. After 12 hours of expression at the end point GFP fluorescence signal was measured at excitation at 476 nm, emission at 510 nm on a SpectraMax M5 fluorescence plate reader.
Similarly, clone 2A9, specific for Formula II, was titrated into the GFP-based amber supression CFPS reactions in the absence or presence of 4 μM Formula II.

Molecule | GFP levels relative to the positive GFP control reaction (reaction containing the non-natural amino acid and its specific RS clone (2A2 for Formula I, 2A9 for Formula II), control GFP has no premature stop codon) | full-length GFP expression by suppression of the TAG codon | amber suppression efficiency (levels of GFP detected) | amber suppression (levels of GFP detected) without non-natural amino acid
Cc1nnc(NCc2ccc(C[C@H](N)C(=O)O)nc2)nn1 [Formula I, (S)-2-amino-3-(5-((6-methyl-1,2,4,5-tetrazin-3-ylamino)methyl)pyridin-2-yl)propanoic acid] | comparable |  |  | 
Clone 2A2: M. jannaschii TyrRS variant for Formula I: Y32L, L65V, H70A, F108W, Q109S, D158V, I159A, L162V (protein, listed as Methanococcus jannaschii, wild-type (WT) tyrosyl tRNA synthetase (TyrRS), reference sequence, M. jannaschii TyrRS variant for Formula I: Y32L, L65V, H70A, F108W, Q109S, D158V, I159A, L162V) MDEFEMIKRNTSEIISEEELREVLKKDEKSALIGFEPSGKIHLGHYLQIKKMIDLQNAGFDIIIVLADLAAYLNQKGELDEIRKIGDYNKKVFEAMGLKAKYVYGSEWSLDKDYTLNVYRLALKTTLKRARRSMELIAREDENPKVAEVIYPIMQVNVAHYVGVDVAVGGMEQRKIHMLARELLPKKVVCIHNPVLTGLDGEGKMSSSKGNFIAVDDSPEEIRAKIKKAYCPAGVVEGNPIMEIAKYFLEYPLTIKRPEKFGGDLTVNSYEELESLFKNKELHPMDLKNAVAEELIKILEPIRKRL |  | expressed only in the presence of the compound of Formula I | high amber suppression efficiencies | substantially no amber supression
Clone 2A9: M. jannaschii TyrRS variant for Formula II: Y32G, L65V, H70A, Q109S, D158G, L162S (protein, listed as Methanococcus jannaschii, wild-type (WT) tyrosyl tRNA synthetase (TyrRS), reference sequence, M. jannaschii TyrRS variant for Formula II: Y32G, L65V, H70A, Q109S, D158G, L162S) MDEFEMIKRNTSEIISEEELREVLKKDEKSAGIGFEPSGKIHLGHYLQIKKMIDLQNAGFDIIIVLADLAAYLNQKGELDEIRKIGDYNKKVFEAMGLKAKYVYGSEFSLDKDYTLNVYRLALKTTLKRARRSMELIAREDENPKVAEVIYPIMQVNGIHYSGVDVAVGGMEQRKIHMLARELLPKKVVCIHNPVLTGLDGEGKMSSSKGNFIAVDDSPEEIRAKIKKAYCPAGVVEGNPIMEIAKYFLEYPLTIKRPEKFGGDLTVNSYEELESLFKNKELHPMDLKNAVAEELIKILEPIRKRL |  | expressed only in the presence of the compound of Formula II | high amber suppression efficiencies | substantially no amber supression
